According to paper PMC12012478, “Roquin exhibits opposing effects on RNA stem-loop stability through its two ROQ domain binding sites”:

Assays:
[1] = molecular target: T1, coreROQ (Roquin-1 core ROQ domain) (murine) (UniProt Q4VGL6); test: optical tweezers (kinetics, koff/kon); conditions: low-salt buffer, Protein/RNA buffer 150 mM NaCl, 50 mM Tris pH 7.0, 1 mM TCEP, OT in low-salt near-physiological buffer (composition not in material), EMSA 3 nM RNA, 0-20 uM …
T1 sequence: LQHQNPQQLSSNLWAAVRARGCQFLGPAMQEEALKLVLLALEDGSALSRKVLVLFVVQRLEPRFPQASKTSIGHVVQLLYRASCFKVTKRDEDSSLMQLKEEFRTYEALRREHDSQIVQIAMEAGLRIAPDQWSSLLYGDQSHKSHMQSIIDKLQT

[2] = molecular target: T2, extROQ (Roquin-1 extended ROQ domain) (murine) (UniProt Q4VGL6); test: optical tweezers (kinetics, koff/kon); conditions: low-salt buffer, Protein/RNA buffer 150 mM NaCl, 50 mM Tris pH 7.0, 1 mM TCEP, OT in low-salt near-physiological buffer (composition not in material), EMSA 3 nM RNA, 0-20 uM …
T2 sequence: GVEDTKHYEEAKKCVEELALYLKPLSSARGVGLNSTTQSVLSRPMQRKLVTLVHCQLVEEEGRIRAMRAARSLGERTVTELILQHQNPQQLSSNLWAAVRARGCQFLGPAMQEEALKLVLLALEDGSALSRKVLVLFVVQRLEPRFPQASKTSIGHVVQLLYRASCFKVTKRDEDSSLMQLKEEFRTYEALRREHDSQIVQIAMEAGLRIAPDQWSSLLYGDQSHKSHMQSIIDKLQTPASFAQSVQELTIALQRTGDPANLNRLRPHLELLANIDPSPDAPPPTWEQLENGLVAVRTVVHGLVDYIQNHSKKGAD

[3] = molecular target: T3, coreROQ (Roquin-1 core ROQ domain) (murine, UniProt Q4VGL6 171-326); test: hydroxyl radical footprinting; residues 62-87 protected, 88-100 more exposed; Protein/RNA buffer 150 mM NaCl, 50 mM Tris pH 7.0, 1 mM TCEP; OT in low-salt near-physiological buffer (composition not in material); EMSA 3 nM RNA, 0-20 uM protein, 6% native PAGE at 4 C; conditions: protein: recombinant; tags: His tag removed by TEV (Ni IMAC; tag type implied); label: 5' fluorescein in EMSA; none stated for NMR/CD; hairpin with hexaloop and central bulge
T3 sequence: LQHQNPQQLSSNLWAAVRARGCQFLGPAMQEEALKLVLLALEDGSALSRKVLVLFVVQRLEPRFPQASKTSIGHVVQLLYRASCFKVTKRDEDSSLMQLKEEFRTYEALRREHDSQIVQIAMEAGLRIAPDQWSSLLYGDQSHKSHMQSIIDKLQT

[4] = molecular target: T4, extROQ (Roquin-1 extended ROQ domain) (murine, UniProt Q4VGL6 89-404); test: as above; conditions: protein: recombinant; tags: His tag removed by TEV (Ni IMAC; tag type implied); label: 5' fluorescein in EMSA; none stated for NMR/CD; hairpin with hexaloop and central bulge
T4 sequence: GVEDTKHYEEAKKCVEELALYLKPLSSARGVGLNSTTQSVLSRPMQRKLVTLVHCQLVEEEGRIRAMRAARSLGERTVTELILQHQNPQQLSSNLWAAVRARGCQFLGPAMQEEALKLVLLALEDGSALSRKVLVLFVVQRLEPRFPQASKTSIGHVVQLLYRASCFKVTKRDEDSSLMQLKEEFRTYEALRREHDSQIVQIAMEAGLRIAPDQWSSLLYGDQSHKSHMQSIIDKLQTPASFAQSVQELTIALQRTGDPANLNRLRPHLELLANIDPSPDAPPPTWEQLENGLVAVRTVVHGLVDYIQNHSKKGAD

For “GGCAGGGCUGACGUAGUUGGAGUGGUGCGGGAGGGCCUGCCAGUACCCUCCACACCGUUCUAGGUGCUGGGCUGGCUCUGGGCAGUGAGGGCAGAAUUCAGGUG [Ox40 ADE, optical tweezers construct]”, which Kd ([1]; extrapolated to zero force) is on record?
The Kd was 4.8 nM.

What about the Kd ([2]; extrapolated to zero force) of the same molecule?
Its Kd is 1.67 nM.

Which results are given for “GGCAGGGCUGACGUAGUUGGAGUGGUGCGGGAGGGGCUUUCCUAUGUAUGCUAUGCAUACUACAGUGAGGGCAGAAUUCAGGUG [Ox40 CDE, optical tweezers construct]”?
Kd ([1]; zero force): 33 nM; Kd ([2]; zero force): 2 nM

Does GCCUGCCAGUACCCUCCACACCGUUCUAGGUGCUGGGCUGGCUCUGGGC (structured_RNA) [Ox40 ADE, bulk RNA] bind [3]?
Result: binds

Does GCCUGCCAGUACCCUCCACACCGUUCUAGGUGCUGGGCUGGCUCUGGGC (structured_RNA) [Ox40 ADE, bulk RNA] bind [4]?
Result: binds
